Test results as given in patent publication US10202593B2, “Evolved sortases and uses thereof” (President and Fellows of Harvard College, priority 2013, dated 2019).

What was measured:
[1] = test system: GGG-functionalized amphiphilic diblock polypeptide; assay: GGG-diblock functionalization; assay type: biochemical; details: Alexa Fluor 488-LAETG or 647-LPESG, 1 hour
Method: Amphiphilic diblock polypeptide (Diblock) was co-incubated with Alexa Fluor® 488-LAETG (SEQ ID NO: 5), Alexa Fluor® 647-LPESG (SEQ ID NO: 3), eSrtA(2A-9), and/or eSrtA(4S-9). The reactions were analyzed by denaturing gel electrophoresis and visualized using either Coomassie stain (top), 488 fluorescence (bottom, blue), or 647 fluorescence (bottom, red). Magenta denotes the overlap of blue and red fluorescence signals.
GGG-functionalized recombinant amphiphilic diblock polypeptide (Diblock), GGG-Diblock, was used as a substrate to test the orthogonality of the two evolved sortases in solution. GGG-Diblock based on elastin-mimetic polypeptide sequences was prepared as previously described (Kim et al. Self-Assembly of Thermally Responsive Amphiphilic Diblock Copolypeptides into Spherical Micellar Nanoparticles. Angewandte Chemie International Edition 49, 4257-4260, doi:10.1002/anie.201001356 (2010)) with slight changes in sequence by genetically incorporating an N-terminal triglycine motif. A complete amine acid sequence is GGG-VPGEG-[(VPGVG)(VPGEG)(VPGVG)(VPGEG)(VPGVG)]10-CCCCGG-[(IPGVG)2VPGYG(IPGVG)2]15-VPGYG (SEQ ID NO: 75). In a 0.6 mL Eppendorf tube, GGG-functionalized Diblock (10 μM) was mixed with fluorophore-peptide (0.1 μM), evolved sortase (15 μM) and CaCl2 (100 mM), then reacted for 1 hour at room temperature. […]

[2] = Materials (surface) functionalization of GGG-PEG 96-well plates; assay type: biochemical; details: Alexa Fluor 488-LAETGG or Alexa Fluor 647-LPESGG, 2 hours
Method: FIG. 21A-D show applications of evolved sortases. (A) N- and C-terminal labeling of fibroblast growth factors FGF1 and FGF2. Tandem SUMO-TEV cleavage site-FGF1/2-LPESG-His6 (SEQ ID NO: 27) constructs were treated with eSrtA(4S-9) in the presence of GGG-PEG, then with eSrtA(2A-9) and TEV protease in the presence of Alexa Fluor750-LAETGG (SEQ ID NO: 35) and purified to afford the final conjugates in up to 20% yield (Table 3). The crude reactions were analyzed by SDS-PAGE and scanned for fluorescence at 700 nm. (B) Surface functionalization using eSrtA(2A-9) and eSrtA(4S-9). […] The total fluorescence of the resulting surfaces was measured at 488 nm or 647 nm, then normalized to the fluorescent intensities obtained from the samples containing eSrtA(2A-9)+488-LAETG (SEQ ID NO: 5) or eSrt(4S-9)+647-LPESG (SEQ ID NO: 3). […]
GGG-functionalized substrate was generated by incubating 100 μL of 2 μM biotin-PEG (5K)-GGG in streptavidin coated 96 well microplates (Pierce) for 2 hours at room temperature, and washed three times with TBST buffer (20 mM Tris, 100 mM NaCl, pH 7.5 with 0.05% Tween 20). […] Total fluorescent intensities were measured at 488 nm and 647 nm using a Biotek Synergy NEO HTS Multi Mode microplate reader. […]

Sequence of GGG-functionalized amphiphilic diblock polypeptide (as listed by the source): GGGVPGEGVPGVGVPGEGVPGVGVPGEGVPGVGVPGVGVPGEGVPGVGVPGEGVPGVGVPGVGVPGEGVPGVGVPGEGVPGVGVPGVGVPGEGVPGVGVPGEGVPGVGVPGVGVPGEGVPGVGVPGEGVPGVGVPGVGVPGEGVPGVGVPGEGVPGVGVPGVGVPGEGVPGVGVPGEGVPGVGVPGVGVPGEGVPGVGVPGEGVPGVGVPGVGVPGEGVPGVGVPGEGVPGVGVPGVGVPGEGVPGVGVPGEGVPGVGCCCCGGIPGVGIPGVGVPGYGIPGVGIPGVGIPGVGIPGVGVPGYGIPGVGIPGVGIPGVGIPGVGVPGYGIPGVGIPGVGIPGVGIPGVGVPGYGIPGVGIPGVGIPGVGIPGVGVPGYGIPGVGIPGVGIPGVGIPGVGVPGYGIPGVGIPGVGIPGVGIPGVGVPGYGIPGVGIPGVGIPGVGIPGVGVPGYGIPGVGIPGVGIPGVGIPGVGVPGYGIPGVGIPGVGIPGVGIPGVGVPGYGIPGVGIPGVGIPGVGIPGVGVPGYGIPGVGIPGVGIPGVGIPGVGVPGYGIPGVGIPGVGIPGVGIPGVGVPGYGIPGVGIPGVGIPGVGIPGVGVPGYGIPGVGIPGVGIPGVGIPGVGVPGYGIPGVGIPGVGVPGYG

Molecule | peptide-diblock conjugation [1] | modification of GGG-PEG-functionalized surfaces [2]
eSrtA(2A-9): P94R, S102C, A104H, E105D, K138P, K152I, N160K, K162H, T164N, D165A, K173E, I182V, K190E, T196S (protein) QAKPQIPKDKSKVAGYIEIPDADIKEPVYPGPATREQLNRGVCFHDENESLDDQNISIAGHTFIDRPNYQFTNLKAAKPGSMVYFKVGNETRIYKMTSIRKVHPNAVEVLDEQEGKDKQLTLVTCDDYNEETGVWESRKIFVATEVK | no detectable off-target substrate conjugation | significant modification only on its cognate substrate
eSrtA(4S-9): P94R, N98D, S102C, A104V, A118T, F122A, K134R, F144L, D160N, D165A, I182V, E189F, K190E, K196T (protein) QAKPQIPKDKSKVAGYIEIPDADIKEPVYPGPATREQLDRGVCFVEENESLDDQNISITGHTAIDRPNYQFTNLRAAKKGSMVYLKVGNETRKYKMTSIRNVKPTAVEVLDEQKGKDKQLTLVTCDDYNFETGVWETRKIFVATEVK | no detectable off-target substrate conjugation | significant modification only on its cognate substrate
